Assay results: patent publication US20250230224A1 (University of California, published 2025)
Numbering of substitutions follows the chain as printed.

B1: 4C4.2 IgG (antibody, V domains shown)
VH: QVQLVESGPGLVKPSQTLSLTCSVSGASINNSPYFWNWFRQFPGKGLEWIGYIYWSGSTNYNPSLKSRLAMSVDTSKNQFSLKLTSATAADTAVYYCARDQGGGTVVKENWFDPWGQGTLVTVSS
VL: DIQMTQSPSTLSASVGDRVTITCRASQSIGTYLNWYQQKPGRAPTLLVSRTSNLHTGVPSRFSGDGSGSHFSLTIDSLQPEDFATYYCQQSHTSPVTFGQGTKVEIK
B2: 8DC4.1 IgG (antibody, V domains shown)
VH: QVQLQESGPGLVKPSQTLSLTCTVSGGSISSDNYFWTWIRQSPGKGLEWLGHISYSGRSYTNLSLKRRLTISVDTSKNQFSLNLNSVTAADTAVYYCARERLPPGRGYDMDVWGQGTTVTVSS
VL: not shown
B3: 8DC4.4 IgG (antibody, V domains shown)
VH: B2 VH
VL: DIVMTQSPSSVSASVGDRVTITCRASRDISIYLNWYQQKPGKAPKLLIYAASNLETGVPSRFSGSGSGTDFTLTISSLQPEDVATYYCQQSYNTPLTFGGGTKLEIKR
B4: 4C4.1 IgG (antibody, V domains shown)
VH: B1 VH
VL: ETTLTQSPSSLSASVGDRVSITCRASQSISNYLNWYQQKPGKAPKLLIYAASSLQSGVPSRFSGSGSGTDFTLTISSLQPEDFATYYCQQSYSDPPTFGQGTKVEIK
B5: 4C4 IgG (antibody, V domains shown)
VH: B1 VH
VL: DIVMTQSPSSLSASVGDRLTMTCQASQDIGKHLNWYQQKAGKPPKLLIYGASNLKTGVPSRFSAGVSWTDFTFTISNVQPEDVATYYCQQSYSTPPTFGQGTKVEIK
B6: 4C4.4 IgG (antibody, V domains shown)
VH: B1 VH with V5Q, S23T, N30S
VL: DIVMTQSPSSLSASVGDRLTMTCQASQDIGKHLNWYQQKAGKPPKLLIYGASNLKTGVPSRFSAGVSWTDFTFTISNVQPEDVATYYCQQSYSTPPTFGQGTKVEIKR
B7: 6F5.4 IgG (antibody, V domains shown)
VH: EVQLVPSGGNLVQPGGSLRLSCAATGPIDYHWMTWVRQAPGQGLEWVANINLDGTEKFYVDSVKGRFTVSRDNRKSSVFLQMNNLRVDDTAVYYCARLQWGERDGWLSPWGQGTLVTVSS
VL: DIVMTQSPPSLSASVGDRVRLTCRASQSIGRSLNWYQQKPGKAPKLLIYDASALHSGVPSRFSGSGSGTDFTLTISGLQPEDFATYYCQQTNDLPVTFGGGTKLEIKR
B8: Hu6F11 IgG (antibody, V domains shown)
VH: EVQLVESGGGLVKPGGSLRLSCAASGFTFSNYGMSWVRQAPGKGLEWVASISSGGSYIYYPDSVKGRFTISRDNAKNSLYLQMNSLRAEDTAVYYCARRKGYDSLYWYFDVWGQGTLVTVSS
VL: DVVMTQSPSSLSAFVGDRVTITCRASQGIRSYLAWFQQKPGKAPKLLIYAASTLQSGVPSRFSGSGSGTEFTLTVSGLQPEDFATYYCQQYNSYPLTFGGGTRLEIKR
B9: Hu6F13.4 IgG (antibody, V domains shown)
VH: QVQLVQSGAEVKKPGASVKVSCKASGYSFTSYWMHWVRQAPGQGLEWIGFINPINGGIIYNEKFRFRATLTVDTSISTAYMELSRLRSDDTAVYYCARAGYYGSSRHFDVWGQGTLLTVSS
VL: ETTLTQSPSSLSASVGDRVTITCRASQGIRNYLAWYQQKPGKAPKLLIYDASNLETGVPSRFSGSGSGTDFTFTISSLQPEDFATYYCLQTSSTPWTFGQGTKVDIKR

Molecular target: T1, Botulinum neurotoxin serotype D (BoNT/D) (Clostridium botulinum, UniProt P19321 2-1276)
T1 sequence: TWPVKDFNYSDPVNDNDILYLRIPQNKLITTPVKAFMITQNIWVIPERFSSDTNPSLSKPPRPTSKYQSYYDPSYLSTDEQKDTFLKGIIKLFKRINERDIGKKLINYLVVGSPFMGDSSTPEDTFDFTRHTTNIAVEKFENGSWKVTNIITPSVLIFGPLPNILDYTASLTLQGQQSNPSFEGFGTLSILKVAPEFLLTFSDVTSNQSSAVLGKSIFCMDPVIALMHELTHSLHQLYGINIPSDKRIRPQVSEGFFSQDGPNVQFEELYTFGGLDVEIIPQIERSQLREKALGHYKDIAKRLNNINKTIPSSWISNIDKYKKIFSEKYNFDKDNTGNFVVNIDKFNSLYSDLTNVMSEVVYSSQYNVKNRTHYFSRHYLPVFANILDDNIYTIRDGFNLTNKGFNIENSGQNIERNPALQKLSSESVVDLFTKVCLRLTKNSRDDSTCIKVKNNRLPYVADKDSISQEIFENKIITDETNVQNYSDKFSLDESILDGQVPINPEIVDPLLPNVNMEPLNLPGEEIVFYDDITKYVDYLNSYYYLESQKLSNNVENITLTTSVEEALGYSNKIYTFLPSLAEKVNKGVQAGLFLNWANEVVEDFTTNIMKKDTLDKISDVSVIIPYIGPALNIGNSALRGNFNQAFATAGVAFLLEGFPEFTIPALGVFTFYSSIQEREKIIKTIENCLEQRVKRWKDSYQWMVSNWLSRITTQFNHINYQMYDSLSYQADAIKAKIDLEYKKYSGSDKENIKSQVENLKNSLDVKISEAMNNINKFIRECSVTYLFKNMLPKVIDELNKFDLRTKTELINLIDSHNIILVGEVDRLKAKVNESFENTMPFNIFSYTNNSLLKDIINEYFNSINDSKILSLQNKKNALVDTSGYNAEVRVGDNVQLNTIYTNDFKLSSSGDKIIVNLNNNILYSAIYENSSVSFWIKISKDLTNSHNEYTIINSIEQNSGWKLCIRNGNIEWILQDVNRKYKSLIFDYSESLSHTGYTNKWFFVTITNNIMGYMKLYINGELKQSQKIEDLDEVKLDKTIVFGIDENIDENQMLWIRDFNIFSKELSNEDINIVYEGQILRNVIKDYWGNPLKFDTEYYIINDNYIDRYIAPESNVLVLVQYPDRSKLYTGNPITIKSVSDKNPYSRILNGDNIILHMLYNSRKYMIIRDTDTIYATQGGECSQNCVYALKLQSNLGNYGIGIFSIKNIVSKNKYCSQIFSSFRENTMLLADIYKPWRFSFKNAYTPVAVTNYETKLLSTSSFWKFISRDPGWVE
Assay: KinExA flow fluorimetry, solution phase, IgG

Row | Binder | Kd [nM]
1 | B1 | 0.254
2 | B2 | 1.4
3 | B3 | 0.157
4 | B4 | 0.898

Molecular target: T2, Botulinum neurotoxin serotype C (BoNT/C) (Clostridium botulinum, UniProt P18640 2-1291)
T2 sequence: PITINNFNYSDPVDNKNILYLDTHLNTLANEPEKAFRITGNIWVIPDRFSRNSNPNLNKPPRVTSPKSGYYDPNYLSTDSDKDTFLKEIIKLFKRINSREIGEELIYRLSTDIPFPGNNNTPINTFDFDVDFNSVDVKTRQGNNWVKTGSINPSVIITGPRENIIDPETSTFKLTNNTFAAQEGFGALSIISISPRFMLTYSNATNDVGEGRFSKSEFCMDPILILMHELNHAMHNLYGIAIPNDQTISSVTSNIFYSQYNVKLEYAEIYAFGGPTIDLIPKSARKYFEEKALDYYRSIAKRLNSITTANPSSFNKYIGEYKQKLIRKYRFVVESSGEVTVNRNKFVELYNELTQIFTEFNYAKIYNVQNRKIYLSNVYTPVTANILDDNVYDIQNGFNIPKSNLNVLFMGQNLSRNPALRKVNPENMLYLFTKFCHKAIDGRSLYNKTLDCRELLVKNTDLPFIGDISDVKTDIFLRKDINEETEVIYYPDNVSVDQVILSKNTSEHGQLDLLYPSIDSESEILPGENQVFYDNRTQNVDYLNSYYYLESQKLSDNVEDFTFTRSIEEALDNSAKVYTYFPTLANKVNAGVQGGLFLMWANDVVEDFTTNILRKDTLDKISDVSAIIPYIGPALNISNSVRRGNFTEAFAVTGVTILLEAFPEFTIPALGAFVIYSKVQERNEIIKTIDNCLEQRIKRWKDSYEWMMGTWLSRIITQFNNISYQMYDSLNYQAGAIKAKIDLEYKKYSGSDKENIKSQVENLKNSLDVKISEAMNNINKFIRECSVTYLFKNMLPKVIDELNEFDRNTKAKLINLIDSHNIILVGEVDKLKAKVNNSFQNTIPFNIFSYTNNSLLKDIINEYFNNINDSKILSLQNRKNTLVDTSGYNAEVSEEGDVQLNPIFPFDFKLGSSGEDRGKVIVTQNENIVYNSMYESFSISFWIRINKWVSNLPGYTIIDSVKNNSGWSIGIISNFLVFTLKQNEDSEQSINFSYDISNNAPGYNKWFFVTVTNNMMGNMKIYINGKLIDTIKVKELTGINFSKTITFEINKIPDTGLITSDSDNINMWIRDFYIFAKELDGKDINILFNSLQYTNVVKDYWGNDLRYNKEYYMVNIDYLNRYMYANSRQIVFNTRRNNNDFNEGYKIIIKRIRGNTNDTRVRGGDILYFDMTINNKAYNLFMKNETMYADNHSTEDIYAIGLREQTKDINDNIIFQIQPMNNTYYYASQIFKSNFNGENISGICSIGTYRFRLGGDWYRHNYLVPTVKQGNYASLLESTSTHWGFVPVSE
Assay: KinExA flow fluorimetry, solution phase, IgG

Row | Binder | Kd [nM]
5 | B5 | 0.888
6 | B1 | 0.035
7 | B6 | 0.016
8 | B2 | 1.4
9 | B3 | 0.136
10 | B4 | 0.57

Molecular target: Mosaic botulinum neurotoxin BoNT/DC (Clostridium botulinum)
Assay: KinExA flow fluorimetry, solution phase, IgG

Row | Binder | Kd [nM]
11 | B5 | 0.597
12 | B1 | 0.126
13 | B2 | 1.4
14 | B4 | 0.058

Molecular target: T3, BoNT/F1 (UniProt A7GBG3 1-1278)
T3 sequence: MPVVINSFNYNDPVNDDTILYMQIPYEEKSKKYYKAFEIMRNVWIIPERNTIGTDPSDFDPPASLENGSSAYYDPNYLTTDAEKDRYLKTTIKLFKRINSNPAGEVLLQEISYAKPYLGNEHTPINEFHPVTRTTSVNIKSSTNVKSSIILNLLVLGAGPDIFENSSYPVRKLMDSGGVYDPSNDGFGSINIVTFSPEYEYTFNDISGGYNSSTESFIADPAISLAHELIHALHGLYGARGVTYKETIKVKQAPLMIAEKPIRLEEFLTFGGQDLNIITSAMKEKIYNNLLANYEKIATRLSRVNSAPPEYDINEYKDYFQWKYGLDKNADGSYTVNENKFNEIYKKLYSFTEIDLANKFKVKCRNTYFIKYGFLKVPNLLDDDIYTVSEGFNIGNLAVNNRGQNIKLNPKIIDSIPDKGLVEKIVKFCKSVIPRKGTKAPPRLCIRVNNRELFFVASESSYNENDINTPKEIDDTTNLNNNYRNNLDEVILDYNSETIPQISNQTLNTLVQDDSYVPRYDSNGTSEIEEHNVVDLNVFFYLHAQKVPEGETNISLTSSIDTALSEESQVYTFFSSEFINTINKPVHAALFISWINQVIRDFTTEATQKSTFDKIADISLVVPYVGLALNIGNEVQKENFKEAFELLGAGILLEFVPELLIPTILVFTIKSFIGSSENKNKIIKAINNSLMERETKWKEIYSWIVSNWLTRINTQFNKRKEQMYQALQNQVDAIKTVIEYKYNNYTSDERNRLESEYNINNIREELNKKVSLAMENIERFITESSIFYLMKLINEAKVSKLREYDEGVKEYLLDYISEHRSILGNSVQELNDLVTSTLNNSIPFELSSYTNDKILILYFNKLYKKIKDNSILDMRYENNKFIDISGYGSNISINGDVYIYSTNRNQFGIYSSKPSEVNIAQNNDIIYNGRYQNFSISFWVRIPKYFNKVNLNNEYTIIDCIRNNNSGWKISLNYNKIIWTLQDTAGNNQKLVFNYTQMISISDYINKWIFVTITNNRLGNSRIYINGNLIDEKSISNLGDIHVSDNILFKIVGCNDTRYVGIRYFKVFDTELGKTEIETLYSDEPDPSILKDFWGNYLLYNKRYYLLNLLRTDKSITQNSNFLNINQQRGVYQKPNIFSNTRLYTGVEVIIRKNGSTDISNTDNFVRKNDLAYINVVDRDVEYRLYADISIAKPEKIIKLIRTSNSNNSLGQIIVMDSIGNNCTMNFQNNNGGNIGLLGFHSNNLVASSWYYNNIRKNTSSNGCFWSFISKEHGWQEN
Assay: KinExA, IgG

Row | Binder | Kd [nM]
15 | B7 | 0.0149
16 | B8 | 0.00071
17 | B9 | 0.173
